The values that follow are results of earlier work, collected in paper PMC3317066.

A word on the Ki: it is the equilibrium dissociation constant of an inhibitor or competing ligand from its target. As usually defined, the Kd is the free concentration of one partner at which half of the binding sites on the other are occupied at equilibrium, for simple one-to-one binding.

Data set [1] deals with falcipain-2 (Plasmodium falciparum) (UniProt Q8I6U4).
For data set [2], the target named is falcipain-3 (Plasmodium falciparum) (UniProt Q8IIL0).
UniProt Q8IIL0, sequence (Q8IIL0 243-492): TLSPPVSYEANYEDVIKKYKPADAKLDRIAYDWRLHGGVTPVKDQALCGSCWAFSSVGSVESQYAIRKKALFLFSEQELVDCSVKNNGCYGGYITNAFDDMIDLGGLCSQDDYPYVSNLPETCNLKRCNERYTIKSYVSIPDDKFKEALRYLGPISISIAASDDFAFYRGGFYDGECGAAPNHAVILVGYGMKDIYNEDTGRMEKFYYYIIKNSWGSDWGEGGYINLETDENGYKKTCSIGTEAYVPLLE
The target of data set [3] is hemoglobin (Homo sapiens) (UniProt P69905).
Data set [4] addresses methemoglobin (Homo sapiens) (UniProt P69905).

Turning to cystatin (from UniProt P01038), the Ki in data set [1] was 6.5 nM; in data set [2], 100 nM.

Regarding falcipain-2 (from UniProt Q8I6U4), the equilibrium dissociation constant (Kd) was 3300 nM in data set [3] and 800 nM in data set [4].
